Measurements published in paper PMC3149346.

Legend:
Test in all cases: AUC
[1] = target: LZ5 K309C/C335A mutant of the Nek2 leucine zipper (UniProt P51955)
[2] = target: Nek2 leucine zipper construct LZ0 (residues 290-360) (UniProt P51955)
[3] = target: Nek2 core leucine zipper construct LZ5 (residues 299-343) (UniProt P51955)

**Q.** For “LZ5 K309C/C335A mutant of the Nek2 leucine zipper (from UniProt P51955 299-343) (domain or fragment)”, which stoichiometry N [1] is on record?
**A.** 2

**Q.** With “Nek2 leucine zipper construct LZ0 (residues 290-360) (from UniProt P51955 290-360) (domain or fragment)” as the substance, how does the stoichiometry N [2] read?
**A.** 2

**Q.** How did the stoichiometry N [3] turn out when “Nek2 core leucine zipper construct LZ5 (residues 299-343) (from UniProt P51955 299-343) (domain or fragment)” was run?
**A.** 2
